Test results published in the supplement of paper PMC10126150.
± gives the standard deviation of the averaged measurements.

Test system: ATP
Assay: switch fluorescence ratio, 500 uM ATP over buffer (Cy3 cluster intensity, sum of 5 cycles each) (fold (ratio)); higher = stronger signal-on switching upon ATP binding; sequences stand for … in TCGTCGGCAGCGTCAGATGTGTATAAGAGACAGTTTTTTTTTTTTTTTTTTTTTTTTT…TC
Settings: aptamer strand: ATP DNA aptamer (quencher-CACCTGGGGGAGTATTGCGGAGGAAGG + anchor), 100 nM annealed; ATP concentration: 500 uM
Outline: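 Per cluster, summed Cy3 intensity from the target cycles was divided by that from the buffer cycles to give the fluorescence ratio, then averaged per switch-domain sequence. Clusters outside 100-1000 RFU were excluded. The Cy3-labelled switching-strand clusters, on a modified Illumina MiSeq flow-cell, were annealed to 100 nM quencher-labelled ATP aptamer and imaged in selection buffer, then after 15 min with 500 uM ATP at 22 °C, for five cycles with NaOH stripping and re-annealing between them.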
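Note: ATP exposure 15 min at 22 °C before imaging.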

| Sequence | switch fluorescence ratio |
| --- | --- |
| ATGGTTTTT | 0.984 ± 0.022 |
| ATGTAACTTT | 1.16 ± 0.27 |
| ATGTAAGAGG | 0.9754 ± 0.0093 |
| ATGTAAGGAG | 1.02 ± 0.018 |
| ATGTAATGGT | 1.01 ± 0.03 |
| ATGTAATTAA | 0.964 ± 0.046 |
| ATGTAATTTC | 0.9987 ± 0.0036 |
| ATGTACATTT | 1.068 ± 0.0059 |
| ATGTAGACGG | 0.984 ± 0.011 |
| ATGTAGAGGC | 0.987 ± 0.026 |
| ATGTAGATAT | 1.01 ± 0.021 |
| ATGTAGCATC | 1.56 ± 0.028 |
| ATGTAGGGTC | 1.02 ± 0.02 |
| ATGTAGGGTG | 1.008 ± 0.0039 |
| ATGTAGGTTG | 0.988 ± 0.029 |
| ATGTATATAA | 0.985 ± 0.018 |
| ATGTATGTGC | 0.997 ± 0.041 |
| ATGTATGTTG | 0.982 ± 0.072 |
| ATGTATTACT | 1.03 ± 0.033 |
| ATGTCAGAGG | 0.977 ± 0.041 |
| ATGTCAGCGC | 1 ± 0.044 |
| ATGTCAGGGG | 1.14 ± 0.021 |
| ATGTCAGGTG | 4.1 ± 0.71 |
| ATGTCCGGG | 0.968 ± 0.045 |
| ATGTCCTAGC | 1.03 ± 0.0038 |
| ATGTCGGGCA | 0.986 ± 0.064 |

| Sequence | switch fluorescence ratio |
| --- | --- |
| ATGTCGTGTG | 0.9923 ± 0.0066 |
| ATGTGAGGGG | 0.986 ± 0.029 |
| ATGTGCGGGG | 0.99 ± 0.019 |
| ATGTGGAATG | 0.994 ± 0.037 |
| ATGTGGAGAC | 0.9921 ± 0.005 |
| ATGTGGGTCT | 1.02 ± 0.056 |
| ATGTGGGTGT | 1.02 ± 0.013 |
| ATGTGGGTTG | 1.03 ± 0.022 |
| ATGTGGTGAC | 0.978 ± 0.039 |
| ATGTGGTTCC | 1.004 ± 0.0025 |
| ATGTGTATTT | 1.03 ± 0.023 |
| ATGTGTGGGG | 1.01 ± 0.063 |
| ATGTGTGTTG | 1.04 ± 0.046 |
| ATGTTAAAGG | 0.998 ± 0.016 |
| ATGTTAACGG | 1.01 ± 0.012 |
| ATGTTACATT | 1.01 ± 0.038 |
| ATGTTAGATT | 0.996 ± 0.029 |
| ATGTTAGCGT | 0.9941 ± 0.0048 |
| ATGTTAGTAC | 1.03 ± 0.058 |
| ATGTTATGG | 1.01 ± 0.011 |
| ATGTTATTA | 0.975 ± 0.021 |
| ATGTTATTGT | 0.98 ± 0.049 |
| ATGTTATTTA | 1.01 ± 0.025 |
| ATGTTCAGTT | 0.974 ± 0.012 |
| ATGTTGAACT | 0.99 ± 0.002 |
| ATGTTGAGCC | 0.9874 ± 0.0022 |

| Sequence | switch fluorescence ratio |
| --- | --- |
| ATGTTGGGTT | 0.982 ± 0.031 |
| ATGTTGTCTG | 1 ± 0.035 |
| ATGTTGTGGG | 1 ± 0.013 |
| ATGTTGTTAC | 1.01 ± 0.025 |
| ATGTTGTTGA | 0.998 ± 0.024 |
| ATGTTTAAGC | 1.05 ± 0.048 |
| ATGTTTCACA | 0.951 ± 0.011 |
| ATGTTTCTAT | 0.982 ± 0.027 |
| ATGTTTGATT | 0.999 ± 0.047 |
| ATGTTTGGCC | 1.04 ± 0.041 |
| ATGTTTGTAG | 0.979 ± 0.045 |
| ATGTTTTGAA | 0.9789 ± 0.005 |
| ATGTTTTGGG | 1.01 ± 0.024 |
| ATGTTTTTGG | 1.1 ± 0.22 |
| ATTAAAGGGT | 1.005 ± 0.0084 |
| ATTAAATAGA | 1.02 ± 0.014 |
| ATTAAATTGT | 0.9919 ± 0.0062 |
| ATTAACCATT | 1.01 ± 0.014 |
| ATTAACTAAA | 1.02 ± 0.017 |
| ATTAACTTTA | 1.01 ± 0.035 |
| ATTAAGCACC | 1.3 ± 0.079 |
| ATTAAGGCAA | 1.1 ± 0.014 |
| ATTAAGGCTA | 0.983 ± 0.036 |
| ATTAAGGGGC | 1.02 ± 0.017 |
| ATTAAGTTGA | 0.987 ± 0.041 |
| ATTAATGGCG | 0.9554 ± 0.009 |

| Sequence | switch fluorescence ratio |
| --- | --- |
| ATTAATTCGT | 0.996 ± 0.071 |
| ATTAATTTTC | 0.997 ± 0.039 |
| ATTACAAATT | 1.03 ± 0.05 |
| ATTACAGGGC | 1.03 ± 0.012 |
| ATTACCCTCG | 1.02 ± 0.035 |
| ATTACCTGTT | 1.03 ± 0.047 |
| ATTACGTACT | 1.77 ± 0.11 |
| ATTACTATGG | 1.02 ± 0.02 |
| ATTACTGTGT | 0.99 ± 0.02 |
| ATTACTTATC | 1.02 ± 0.018 |
| ATTAGAGGGG | 0.9862 ± 0.0067 |
| ATTAGAGGTT | 0.9898 ± 0.0094 |
| ATTAGAGTGT | 0.965 ± 0.04 |
| ATTAGGAAAT | 1.08 ± 0.1 |
| ATTAGGAATG | 1.01 ± 0.027 |
| ATTAGGAGAC | 1.005 ± 0.008 |
| ATTAGGGACT | 0.992 ± 0.035 |
| ATTAGGGGGC | 1.04 ± 0.061 |
| ATTAGGGTGG | 0.992 ± 0.018 |
| ATTAGGGTTT | 1.04 ± 0.061 |
| ATTAGGTCTA | 1 ± 0.014 |
| ATTAGTAGAT | 0.97 ± 0.013 |
| ATTAGTGGGG | 0.978 ± 0.013 |
| ATTAGTGGGT | 0.9826 ± 0.005 |
| ATTAGTTGTA | 1 ± 0.025 |
| ATTATAAGTG | 0.96 ± 0.016 |

| Sequence | switch fluorescence ratio |
| --- | --- |
| ATTATACGGG | 1.052 ± 0.007 |
| ATTATATGAC | 1.06 ± 0.05 |
| ATTATATGCG | 0.992 ± 0.0024 |
| ATTATATGGA | 0.956 ± 0.01 |
| ATTATATTTA | 1.02 ± 0.028 |
| ATTATCCCGG | 0.99 ± 0.041 |
| ATTATGAATC | 1.02 ± 0.078 |
| ATTATGGTTT | 1 ± 0.022 |
| ATTATGTAGA | 0.9958 ± 0.0091 |
| ATTATGTCAG | 0.991 ± 0.024 |
| ATTATGTGGC | 0.9803 ± 0.0086 |
| ATTATGTTTA | 1 ± 0.022 |
| ATTATTACGG | 1 ± 0.022 |
| ATTATTCACC | 1.01 ± 0.02 |
| ATTATTCGGA | 1.008 ± 0.0027 |
| ATTATTTTGG | 1.01 ± 0.018 |
| ATTCAAAAAT | 1.04 ± 0.016 |
| ATTCAATCCA | 0.989 ± 0.012 |
| ATTCACATCG | 1.01 ± 0.06 |
| ATTCATGGGA | 1.02 ± 0.031 |
| ATTCATTCGG | 0.992 ± 0.026 |
| ATTCATTTTC | 1.02 ± 0.015 |
| ATTCCAAGGT | 0.997 ± 0.029 |
| ATTCCAGAGG | 1.01 ± 0.02 |
| ATTCCCAGGG | 2.067 ± 0.017 |
| ATTCCGGGAG | 1.07 ± 0.064 |

| Sequence | switch fluorescence ratio |
| --- | --- |
| ATTCGATATA | 1.02 ± 0.014 |
| ATTCGATTTT | 0.999 ± 0.019 |
| ATTCGCAGCA | 1.22 ± 0.056 |
| ATTCGCGCTG | 0.994 ± 0.064 |
| ATTCGGACGG | 1.026 ± 0.0055 |
| ATTCGGCCTT | 1.01 ± 0.043 |
| ATTCGGGTTA | 0.99 ± 0.013 |
| ATTCGGTAA | 0.9962 ± 0.0072 |
| ATTCGTATTT | 0.987 ± 0.029 |
| ATTCGTGGG | 1.01 ± 0.017 |
| ATTCGTGGGA | 0.9892 ± 0.0074 |
| ATTCGTTAGA | 0.999 ± 0.011 |
| ATTCTCTTGT | 0.996 ± 0.014 |
| ATTCTGCTGG | 1.01 ± 0.013 |
| ATTCTGTTTT | 0.986 ± 0.028 |
| ATTCTTACCG | 1.09 ± 0.044 |
| ATTCTTGAGA | 0.988 ± 0.034 |
| ATTCTTGTTC | 0.981 ± 0.05 |
| ATTGAAAAGG | 0.96 ± 0.028 |
| ATTGAAGGAG | 0.994 ± 0.023 |
| ATTGAAGGCG | 1 ± 0.038 |
| ATTGAAGGGC | 0.9661 ± 0.0093 |
| ATTGAATTCG | 1 ± 0.011 |
